Legend:
[1] = target: T1, FITC-labeled type I collagen (rat, UniProt P02454 152-1207; P02466 86-1125, FITC label); experiment: FITC-collagen I added to cell-free, fibronectin-free wells coated with 400 nM mimetic; fluorescence after 20 h
T1 construct: also called FITC-collagen I; collagen I
Protocol: FIGS. 14A-14C show collagen I deposition by cells adherent to matrix mimetics. FN-null MEFs were seeded (3.0×10⁴ cells/cm²) on tissue culture plates pre-coated with matrix mimetics (400 nM). Four hours after seeding, cells were treated with fibronectin (10 μg/ml) and FITC-collagen I (10 μg/ml) for 20 h. In FIG. 14A, control wells received either FITC-collagen I only (+cell, −FN) or FITC collagen I in the absence of both cells and fibronectin (−cells, −FN). […] In FIG. 14B, cells were processed for immunofluorescence microscopy and stained using an antibody against fibronectin. Images represent 1 of 3 experiments. Bar=10 μm. Four hours after seeding, cells were treated with fibronectin (10 μg/ml) and FITC-collagen I ([…]) in the presence of either R1R2 (250 nM) or FNIII11C (250 nM).
The deposition of collagen I into the ECM is dependent on the co-assembly of a fibronectin matrix (Sottile et al., “Fibronectin Polymerization Regulates the Composition and Stability of Extracellular Matrix Fibrils and Cell-Matrix Adhesions,” Mol. Biol. Cell. 13(10):3546-3559 (2002), which is hereby incorporated by reference in its entirety). […] FITC-collagen I deposition was quantified 20 h after fibronectin and collagen addition.

[2] = target: T2, α5β1 integrin on mouse embryonic fibronectin-null fibroblasts (mouse, UniProt P11688 45-1053; P09055 21-798); experiment: immunofluorescence of α5 integrin clustering in FN-null MEFs adherent for 4 h to coated substrate
T2 construct: whole, on cells; Endogenous integrin on FN-null MEFs; also called α5β1 integrins; a5β1 integrin
Protocol: FIGS. 16A-16C show substrate-dependent ligation and clustering of α5β1 integrins. FN-null MEFs were seeded at a density of 2.5×10³ cells/cm² (FIG. 16A) or 3×10⁴ cells/cm² (FIG. 16B) onto tissue culture plates precoated with 400 nM of the various fibronectin matrix mimetics or 10 nM full-length fibronectin and allowed to adhere and spread for 4 h. In FIG. 16A, cells were processed for immunofluorescence microscopy and stained using antibodies against α5 integrin and vinculin. Images represent 1 of 3 experiments. Bar=10 μm. In FIG. 16B, cell surface proteins bound to the adhesive substrates were cross-linked using bis(sulfosuccinimidyl)suberate (BS³). Unbound proteins were extracted and […]. α5 integrins were analyzed by immunoblotting.
The preceding Examples therefore indicate that upon adhesion to GST/III1H,8-10, α5β1 integrins preferentially engage the adhesive substrate instead of soluble fibronectin, thus inhibiting the initiation of the matrix assembly process. To assess α5β1 integrin clustering in response to substrate adhesion, FN-null MEFs were allowed to adhere and spread for 4 h on plates pre-coated with saturating densities of matrix mimetics in the absence of soluble fibronectin. α5β1 integrins were visualized by immunofluorescence microscopy. […]

Human plasma fibronectin = target: T3, Human plasma fibronectin (human, UniProt P02751 32-2477, Alexa^488 label where used as FN^488); experiment: Alexa488-fibronectin added to cell-free wells coated with 400 nM mimetic; fluorescence after 20 h
T3 construct: Used coated on plastic at 10 nM, or soluble at 10 µg/ml, unlabeled or Alexa488-labeled; also called full-length fibronectin; FN
T3 sequence (P02751 other isoform, or with tags, fused parts or gaps): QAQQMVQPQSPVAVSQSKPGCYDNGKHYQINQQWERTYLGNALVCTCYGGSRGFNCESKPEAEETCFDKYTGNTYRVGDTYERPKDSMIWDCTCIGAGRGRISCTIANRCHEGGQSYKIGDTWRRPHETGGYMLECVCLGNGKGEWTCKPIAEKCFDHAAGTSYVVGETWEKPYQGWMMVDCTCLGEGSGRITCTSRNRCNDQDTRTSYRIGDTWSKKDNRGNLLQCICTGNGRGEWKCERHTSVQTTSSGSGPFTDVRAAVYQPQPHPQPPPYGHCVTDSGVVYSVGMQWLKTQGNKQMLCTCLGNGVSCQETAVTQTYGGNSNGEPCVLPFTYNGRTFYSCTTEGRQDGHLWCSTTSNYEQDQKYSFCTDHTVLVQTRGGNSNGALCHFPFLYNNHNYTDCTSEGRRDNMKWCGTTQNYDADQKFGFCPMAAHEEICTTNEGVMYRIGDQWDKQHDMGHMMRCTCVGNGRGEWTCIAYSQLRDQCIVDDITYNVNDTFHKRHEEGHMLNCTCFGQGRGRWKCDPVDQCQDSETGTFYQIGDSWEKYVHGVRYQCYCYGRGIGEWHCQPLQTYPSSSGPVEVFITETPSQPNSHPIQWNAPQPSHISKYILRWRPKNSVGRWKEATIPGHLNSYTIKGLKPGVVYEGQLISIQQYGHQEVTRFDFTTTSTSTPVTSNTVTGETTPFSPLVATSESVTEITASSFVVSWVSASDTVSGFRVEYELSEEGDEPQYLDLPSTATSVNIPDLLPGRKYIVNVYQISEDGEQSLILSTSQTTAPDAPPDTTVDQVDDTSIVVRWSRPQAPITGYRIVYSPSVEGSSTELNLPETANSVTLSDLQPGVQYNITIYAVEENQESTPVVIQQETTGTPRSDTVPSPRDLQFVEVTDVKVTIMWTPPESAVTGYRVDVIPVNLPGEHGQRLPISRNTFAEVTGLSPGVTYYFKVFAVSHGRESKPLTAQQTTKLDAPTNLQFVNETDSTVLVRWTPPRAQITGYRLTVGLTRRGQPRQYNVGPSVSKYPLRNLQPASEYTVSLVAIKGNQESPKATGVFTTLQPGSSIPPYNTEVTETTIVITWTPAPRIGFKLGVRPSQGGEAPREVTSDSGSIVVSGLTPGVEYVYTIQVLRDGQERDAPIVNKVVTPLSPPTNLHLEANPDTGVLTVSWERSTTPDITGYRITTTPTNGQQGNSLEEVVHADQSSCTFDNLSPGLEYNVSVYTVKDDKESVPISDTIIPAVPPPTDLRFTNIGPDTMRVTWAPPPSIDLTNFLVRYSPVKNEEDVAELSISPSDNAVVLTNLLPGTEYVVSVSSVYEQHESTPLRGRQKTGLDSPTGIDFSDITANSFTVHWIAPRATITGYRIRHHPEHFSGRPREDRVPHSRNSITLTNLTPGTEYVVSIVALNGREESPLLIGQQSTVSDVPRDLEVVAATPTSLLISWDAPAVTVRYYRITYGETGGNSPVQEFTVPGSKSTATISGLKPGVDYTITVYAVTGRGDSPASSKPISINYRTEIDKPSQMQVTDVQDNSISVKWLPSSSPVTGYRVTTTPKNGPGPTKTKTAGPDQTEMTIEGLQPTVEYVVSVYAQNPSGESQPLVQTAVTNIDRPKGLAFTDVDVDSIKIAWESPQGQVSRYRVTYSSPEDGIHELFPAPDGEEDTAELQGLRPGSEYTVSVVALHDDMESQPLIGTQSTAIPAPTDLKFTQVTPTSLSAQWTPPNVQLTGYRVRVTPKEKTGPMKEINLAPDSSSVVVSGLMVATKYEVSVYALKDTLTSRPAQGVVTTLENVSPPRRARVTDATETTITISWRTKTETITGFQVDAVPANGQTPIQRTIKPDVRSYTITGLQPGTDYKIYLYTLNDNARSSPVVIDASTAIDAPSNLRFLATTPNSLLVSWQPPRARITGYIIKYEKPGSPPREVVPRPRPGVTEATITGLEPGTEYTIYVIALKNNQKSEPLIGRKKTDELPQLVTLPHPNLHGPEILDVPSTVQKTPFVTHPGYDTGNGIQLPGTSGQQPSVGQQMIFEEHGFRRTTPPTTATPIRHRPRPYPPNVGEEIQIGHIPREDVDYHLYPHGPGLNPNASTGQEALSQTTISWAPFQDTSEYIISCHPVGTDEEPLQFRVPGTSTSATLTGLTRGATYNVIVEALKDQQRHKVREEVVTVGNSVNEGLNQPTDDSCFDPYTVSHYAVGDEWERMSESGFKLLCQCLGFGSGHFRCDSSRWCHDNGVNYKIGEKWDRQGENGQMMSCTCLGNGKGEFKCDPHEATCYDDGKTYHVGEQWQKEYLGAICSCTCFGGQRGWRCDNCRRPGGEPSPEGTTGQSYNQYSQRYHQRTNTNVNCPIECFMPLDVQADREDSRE

T1 sequence (P02454 152-1207, chain 1 of 2): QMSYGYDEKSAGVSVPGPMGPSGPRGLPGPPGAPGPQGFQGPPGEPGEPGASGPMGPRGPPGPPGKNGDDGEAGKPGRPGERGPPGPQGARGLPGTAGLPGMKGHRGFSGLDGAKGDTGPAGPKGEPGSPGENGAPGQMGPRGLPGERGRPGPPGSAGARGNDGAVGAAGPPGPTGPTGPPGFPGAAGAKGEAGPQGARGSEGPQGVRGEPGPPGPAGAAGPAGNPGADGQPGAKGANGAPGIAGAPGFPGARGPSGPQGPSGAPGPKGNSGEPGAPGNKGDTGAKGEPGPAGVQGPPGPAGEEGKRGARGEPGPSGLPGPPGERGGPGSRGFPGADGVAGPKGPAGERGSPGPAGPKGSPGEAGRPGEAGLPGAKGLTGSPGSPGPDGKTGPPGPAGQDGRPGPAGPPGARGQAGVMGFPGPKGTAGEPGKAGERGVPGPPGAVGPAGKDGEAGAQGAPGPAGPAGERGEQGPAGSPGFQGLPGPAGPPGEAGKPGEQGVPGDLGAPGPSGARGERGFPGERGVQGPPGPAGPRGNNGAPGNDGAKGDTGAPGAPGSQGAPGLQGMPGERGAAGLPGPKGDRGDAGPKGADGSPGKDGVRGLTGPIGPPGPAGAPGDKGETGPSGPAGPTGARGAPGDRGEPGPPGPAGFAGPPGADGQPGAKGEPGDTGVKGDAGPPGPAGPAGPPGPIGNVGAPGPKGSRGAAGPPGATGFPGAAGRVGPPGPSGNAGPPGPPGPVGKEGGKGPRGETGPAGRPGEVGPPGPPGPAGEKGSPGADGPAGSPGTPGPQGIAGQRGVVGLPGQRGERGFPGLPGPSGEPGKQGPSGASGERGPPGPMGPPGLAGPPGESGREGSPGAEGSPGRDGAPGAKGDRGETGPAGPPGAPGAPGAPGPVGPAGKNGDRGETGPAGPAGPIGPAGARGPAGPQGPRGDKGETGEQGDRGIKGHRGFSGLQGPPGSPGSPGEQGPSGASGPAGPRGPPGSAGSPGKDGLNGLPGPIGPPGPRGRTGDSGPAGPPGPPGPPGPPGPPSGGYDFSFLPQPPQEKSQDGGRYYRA
T1 sequence (P02466 86-1125, chain 2 of 2): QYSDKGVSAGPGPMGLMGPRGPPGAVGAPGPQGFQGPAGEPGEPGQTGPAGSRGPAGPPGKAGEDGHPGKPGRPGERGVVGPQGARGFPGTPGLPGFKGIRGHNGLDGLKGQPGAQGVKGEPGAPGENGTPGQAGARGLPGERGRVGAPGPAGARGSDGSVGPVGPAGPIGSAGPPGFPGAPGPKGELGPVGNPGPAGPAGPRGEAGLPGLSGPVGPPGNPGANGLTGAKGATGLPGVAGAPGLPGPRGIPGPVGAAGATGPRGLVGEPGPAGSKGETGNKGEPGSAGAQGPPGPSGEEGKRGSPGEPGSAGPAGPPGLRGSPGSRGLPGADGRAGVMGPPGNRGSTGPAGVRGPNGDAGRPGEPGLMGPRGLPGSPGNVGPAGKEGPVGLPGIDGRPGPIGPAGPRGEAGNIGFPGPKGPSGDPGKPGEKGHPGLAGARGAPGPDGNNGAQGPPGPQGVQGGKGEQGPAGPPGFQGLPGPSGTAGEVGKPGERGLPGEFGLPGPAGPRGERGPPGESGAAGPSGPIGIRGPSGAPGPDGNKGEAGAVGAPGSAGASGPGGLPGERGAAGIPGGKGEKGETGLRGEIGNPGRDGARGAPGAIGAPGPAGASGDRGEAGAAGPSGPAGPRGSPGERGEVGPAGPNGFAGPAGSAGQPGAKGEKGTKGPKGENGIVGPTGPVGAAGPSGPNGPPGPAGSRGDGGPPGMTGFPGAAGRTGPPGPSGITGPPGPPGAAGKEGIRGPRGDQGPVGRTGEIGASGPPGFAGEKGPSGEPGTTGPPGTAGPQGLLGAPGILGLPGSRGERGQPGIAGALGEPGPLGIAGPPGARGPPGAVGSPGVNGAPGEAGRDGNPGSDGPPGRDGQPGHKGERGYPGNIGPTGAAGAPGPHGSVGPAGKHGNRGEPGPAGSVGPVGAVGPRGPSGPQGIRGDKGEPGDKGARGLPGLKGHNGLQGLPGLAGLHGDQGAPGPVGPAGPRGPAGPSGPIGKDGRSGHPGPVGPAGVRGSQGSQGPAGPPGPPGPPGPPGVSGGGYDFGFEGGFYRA

Row | Binder | binding result [1] | binding result [2] | binding result (Human plasma fibronectin)
1 | GST/III1H,8^RGD (other, Coated on tissue culture plastic in the assays; also called FNIII1H,8^RGD; not shown: glutathione S-transferase (GST) tag encoded by vector pGEX-2T (Amersham Biosciences)) IQWNAPQPSHISKYILRWRPKNSVGRWKEATIPGHLNSYTIKGLKPGVVYEGQLISIQQYGHQEVTRFDFTTTSTSTAVPPPTDLRFTNIGPDTMRVTWAPPPSIDLTNFLVRYSPVKNEEDVAELSISPSDNAVVLTNLLPGTEYVVSVSSVYGRGDSPASSTPLRGRQKT | no binding (tested: 10 µg/ml) | no binding (tested: 400 nM coating) | no binding (tested: 10 µg/ml)
2 | GST/III1H,8,10 (other, Coated on tissue culture plastic in the assays; also called FNIII1H,8,10; not shown: glutathione S-transferase (GST) tag encoded by vector pGEX-2T (Amersham Biosciences)) IQWNAPQPSHISKYILRWRPKNSVGRWKEATIPGHLNSYTIKGLKPGVVYEGQLISIQQYGHQEVTRFDFTTTSTSTAVPPPTDLRFTNIGPDTMRVTWAPPPSIDLTNFLVRYSPVKNEEDVAELSISPSDNAVVLTNLLPGTEYVVSVSSVYEQHESTPLRGRQKTVSDVPRDLEVVAATPTSLLISWDAPAVTVRYYRITYGETGGNSPVQEFTVPGSKSTATISGLKPGVDYTITVYAVTGRGDSPASSKPISI | no binding (tested: 10 µg/ml) |  | no binding (tested: 10 µg/ml)
